Source: patent EP4772193A1 (Teijin Pharma Limited, dated 2026)
Where two headings read alike, the source gives them in different places.

T1: recombinant human soluble gpNMB (recombinant human gpNMB-FLAG-His) (human, UniProt Q14956 23-498)
T1 sequence: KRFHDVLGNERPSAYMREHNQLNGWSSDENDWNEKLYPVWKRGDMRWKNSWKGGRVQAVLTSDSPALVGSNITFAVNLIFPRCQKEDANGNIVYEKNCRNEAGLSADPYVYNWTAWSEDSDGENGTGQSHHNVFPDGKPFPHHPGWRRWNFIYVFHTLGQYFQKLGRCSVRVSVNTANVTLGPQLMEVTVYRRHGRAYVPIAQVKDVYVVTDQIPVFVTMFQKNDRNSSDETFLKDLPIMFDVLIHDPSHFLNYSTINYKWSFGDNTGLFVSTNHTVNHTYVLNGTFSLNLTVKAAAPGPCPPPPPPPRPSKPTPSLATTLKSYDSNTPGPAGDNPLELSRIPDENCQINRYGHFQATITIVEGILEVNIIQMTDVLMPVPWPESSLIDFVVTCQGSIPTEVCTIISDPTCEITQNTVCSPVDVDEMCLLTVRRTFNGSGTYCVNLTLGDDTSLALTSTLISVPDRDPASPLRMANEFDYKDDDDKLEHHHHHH

T2: recombinant mouse soluble gpNMB (recombinant mouse gpNMB-FLAG-His) (mouse, UniProt Q99P91 23-502)
T2 sequence: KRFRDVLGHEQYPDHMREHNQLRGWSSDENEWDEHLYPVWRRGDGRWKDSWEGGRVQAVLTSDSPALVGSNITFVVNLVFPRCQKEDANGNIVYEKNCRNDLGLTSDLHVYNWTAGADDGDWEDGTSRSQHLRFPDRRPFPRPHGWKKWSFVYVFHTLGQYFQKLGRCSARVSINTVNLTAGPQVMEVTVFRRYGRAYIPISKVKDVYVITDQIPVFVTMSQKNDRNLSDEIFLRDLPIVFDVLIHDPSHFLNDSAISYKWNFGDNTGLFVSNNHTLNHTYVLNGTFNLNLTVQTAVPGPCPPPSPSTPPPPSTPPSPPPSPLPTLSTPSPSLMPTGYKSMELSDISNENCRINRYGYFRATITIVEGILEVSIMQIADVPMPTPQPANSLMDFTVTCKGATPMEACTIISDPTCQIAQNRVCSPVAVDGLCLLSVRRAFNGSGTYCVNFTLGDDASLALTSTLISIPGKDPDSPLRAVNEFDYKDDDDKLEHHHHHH

T3: human gpNMB (Human Osteoactivin, His-tag, AcroBioSystems) (human, UniProt Q14956-2 23-486, limits assumed)
T3 sequence (looked up): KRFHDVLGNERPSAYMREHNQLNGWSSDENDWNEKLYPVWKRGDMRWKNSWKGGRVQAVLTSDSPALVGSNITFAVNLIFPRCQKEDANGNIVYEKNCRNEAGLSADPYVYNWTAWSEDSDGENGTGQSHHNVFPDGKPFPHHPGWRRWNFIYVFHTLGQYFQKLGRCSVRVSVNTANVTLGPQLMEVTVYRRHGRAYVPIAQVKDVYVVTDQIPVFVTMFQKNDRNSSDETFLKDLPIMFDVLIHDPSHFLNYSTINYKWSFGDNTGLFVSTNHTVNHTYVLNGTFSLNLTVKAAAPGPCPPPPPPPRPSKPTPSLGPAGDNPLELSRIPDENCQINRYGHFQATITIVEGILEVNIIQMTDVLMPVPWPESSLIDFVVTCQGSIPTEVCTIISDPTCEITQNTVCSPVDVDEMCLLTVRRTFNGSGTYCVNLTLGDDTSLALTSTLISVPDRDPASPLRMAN


Tests used:
[1] = molecular target: T1, recombinant human soluble gpNMB …; assay: antigen ELISA
[2] = molecular target: T1, recombinant human soluble gpNMB …; assay: antigen ELISA, vs hGPN06-1_H1L1
[3] = molecular target: T1, recombinant human soluble gpNMB …; assay: SPR, antibody 100 nM over captured gpNMB-FLAG-His, 36C
[4] = molecular target: T1, recombinant human soluble gpNMB …; assay: antigen ELISA; remark: listed apart in the source
[5] = molecular target: T2, recombinant mouse soluble gpNMB …; assay: SPR single-cycle kinetics, antibody over captured gpNMB-FLAG-His, 36C, mean of 2
[6] = molecular target: T1, recombinant human soluble gpNMB …; assay: as above
[7] = molecular target: T3, human gpNMB (Human Osteoactivin, …); assay: SPR Biacore 8K, antibody captured on protein A, gpNMB as analyte

Binder	EC50 [1]	Relative binding activity [2]	Kd [5]	koff [5]	kon [5]	Kd [6]	koff [6]	kon [6]	Kd [7]	koff [7]	kon [7]	further results
hGPN06-1_H1L1 VH S99A (antibody, V domains shown) VH: QVQLVQSGAEVKKPGASVKVSCKASGYTFTDNWMGWVKQRPGQGLEWIGAIDPSDSFTNYNQNFKGRVTMTVDTSISTAYMELSRLRSDDSAVYFCTRAGYYGSPKLGGDYWGQGTLVTVSS VL: EIVLTQSPSSLSASVGDRVTITCSASSSISYMHWYQQKSGTAPKLLIYSTSNLASGVPSRFSGSGSGTDFTFTISSLQPEDAATYYCHQWNSYPCTFGGGTKLEIK	0.587 nM	0.92	–	–	–	–	–	–	–	–	–	–
hGPN06-1_H1L1 VH S104A (antibody, V domains shown) VH: QVQLVQSGAEVKKPGASVKVSCKASGYTFTDNWMGWVKQRPGQGLEWIGAIDPSDSFTNYNQNFKGRVTMTVDTSISTAYMELSRLRSDDSAVYFCTRSGYYGAPKLGGDYWGQGTLVTVSS VL: EIVLTQSPSSLSASVGDRVTITCSASSSISYMHWYQQKSGTAPKLLIYSTSNLASGVPSRFSGSGSGTDFTFTISSLQPEDAATYYCHQWNSYPCTFGGGTKLEIK	0.712 nM	0.88	–	–	–	–	–	–	–	–	–	–
hGPN06-1_H1L1 VH T97A (antibody, V domains shown) VH: QVQLVQSGAEVKKPGASVKVSCKASGYTFTDNWMGWVKQRPGQGLEWIGAIDPSDSFTNYNQNFKGRVTMTVDTSISTAYMELSRLRSDDSAVYFCARSGYYGSPKLGGDYWGQGTLVTVSS VL: EIVLTQSPSSLSASVGDRVTITCSASSSISYMHWYQQKSGTAPKLLIYSTSNLASGVPSRFSGSGSGTDFTFTISSLQPEDAATYYCHQWNSYPCTFGGGTKLEIK	0.36 nM	0.98	–	–	–	–	–	–	–	–	–	–
hGPN06-1_H1L1 VH Y101A (antibody, V domains shown) VH: QVQLVQSGAEVKKPGASVKVSCKASGYTFTDNWMGWVKQRPGQGLEWIGAIDPSDSFTNYNQNFKGRVTMTVDTSISTAYMELSRLRSDDSAVYFCTRSGAYGSPKLGGDYWGQGTLVTVSS VL: EIVLTQSPSSLSASVGDRVTITCSASSSISYMHWYQQKSGTAPKLLIYSTSNLASGVPSRFSGSGSGTDFTFTISSLQPEDAATYYCHQWNSYPCTFGGGTKLEIK	0.502 nM	1.04	–	–	–	–	–	–	–	–	–	–
hGPN06-1_H1L1 VH Y102A (antibody, V domains shown) VH: QVQLVQSGAEVKKPGASVKVSCKASGYTFTDNWMGWVKQRPGQGLEWIGAIDPSDSFTNYNQNFKGRVTMTVDTSISTAYMELSRLRSDDSAVYFCTRSGYAGSPKLGGDYWGQGTLVTVSS VL: EIVLTQSPSSLSASVGDRVTITCSASSSISYMHWYQQKSGTAPKLLIYSTSNLASGVPSRFSGSGSGTDFTFTISSLQPEDAATYYCHQWNSYPCTFGGGTKLEIK	2.21 nM	0.68	–	–	–	–	–	–	–	–	–	–
hGPN06-1_H1L1 VH Y111A (antibody, V domains shown) VH: QVQLVQSGAEVKKPGASVKVSCKASGYTFTDNWMGWVKQRPGQGLEWIGAIDPSDSFTNYNQNFKGRVTMTVDTSISTAYMELSRLRSDDSAVYFCTRSGYYGSPKLGGDAWGQGTLVTVSS VL: EIVLTQSPSSLSASVGDRVTITCSASSSISYMHWYQQKSGTAPKLLIYSTSNLASGVPSRFSGSGSGTDFTFTISSLQPEDAATYYCHQWNSYPCTFGGGTKLEIK	0.584 nM	0.99	–	–	–	–	–	–	–	–	–	–
hGPN18-2_H0L0 (antibody, V domains shown, human chimeric antibody: mouse GPN18-2 variable regions; also called human chimeric antibody of GPN18-2) VH: QVTLKESGPGILQPSQTLSLTCSFSGFSLSTSVMGVGWIRQPSGKGLEWLADIWWDDDKDYNPSLKSRLTISKDTSKNQVFLKIASVDTADTATYYCARTYYSNYEYYGMDYWGQGTSVTVSS VL: DVLMTQTPLSLPVSLGDQASISCRSSQTIILSNGNTYLEWYLQKPGQSPKLLIYKVSNRFSGVPDRFSGSGSGTDFTLKISRVEAEDLGVYYCFQGSHVPFTFGSGTKLEIK	–	–	–	–	–	–	–	–	–	–	–	Kd [3]: 0.00346 nM; koff [3]: 4.71e-07 s⁻¹; kon [3]: 141000 M⁻¹ s⁻¹; EC50 [4]: 1.21 nM
hGPN18-5_H0L0 (antibody, V domains shown, chimeric antibody with mouse GPN18-5 variable regions (VH0, VL0); also called hGPN18-5_VH0+VL0; HGPN18-5_VH0+VL0) VH: QVQLQQSGAELAKPGTSVKMSCKASGYTFTTYWMNWVKQRPGQDLEWIGAINPSNDYTEYNQKFKDKAILTADKSSNTAYMQLSSLTSEDSAVYYCGRSYSPDYWGQGTTLTVSS VL: DIVMTQSQKFMSTSVGDRVSVTCKASQNVDNHVAWHQQKPGQSPKALIYSASYRYSGVPDRFTGSGSGTDFTLTIRDVQSEDLADYFCQQYKSYPFTFGSGTELEIK	–	–	5.31 nM	0.00075 s⁻¹	142000 M⁻¹ s⁻¹	3.08 nM	0.000727 s⁻¹	237000 M⁻¹ s⁻¹	237 nM	0.002 s⁻¹	8440 M⁻¹ s⁻¹	–
hGPN18-5_H3L1 (antibody, V domains shown, humanized; also called hGPN18-5 VH3+VL1) VH: QVQLVQSGAEVKKPGASVKVSCKASGYTFTTYWMNWVRQAPGQGLEWIGAINPSNDYTEYNQKFKDRAIMTADKSTSTVYMELSSLRSEDTAVYYCGRSYSPDYWGQGTTVTVSS VL: DIQMTQSPSSLSASVGDRVTITCKASQNVDNHVAWFQQKPGKAPKALIYSASYRYSGVPSRFSGSGSGTDFTLTISSLQPEDFATYFCQQYKSYPFTFGGGTKLEIK	–	–	17.8 nM	0.000862 s⁻¹	52900 M⁻¹ s⁻¹	11.3 nM	0.00138 s⁻¹	142000 M⁻¹ s⁻¹	711 nM	0.00484 s⁻¹	6810 M⁻¹ s⁻¹	–
hGPN18-5_H1L1 (antibody, V domains shown, humanized; also called hGPN18-5_VH1+VL1) VH: QVQLVQSGAEVKKPGASVKVSCKASGYTFTTYWMNWVRQAPGQGLEWIGAINPSNDYTEYNQKFKDRVTMTADTSTSTVYMELSSLRSEDTAVYYCGRSYSPDYWGQGTTVTVSS VL: DIQMTQSPSSLSASVGDRVTITCKASQNVDNHVAWFQQKPGKAPKALIYSASYRYSGVPSRFSGSGSGTDFTLTISSLQPEDFATYFCQQYKSYPFTFGGGTKLEIK	–	–	21.9 nM	0.00143 s⁻¹	73800 M⁻¹ s⁻¹	16.2 nM	0.00307 s⁻¹	308000 M⁻¹ s⁻¹	651 nM	0.00432 s⁻¹	6640 M⁻¹ s⁻¹	–
hGPN18-5_H3L3 (antibody, V domains shown, humanized; also called hGPN18-5_VH3+VL3) VH: QVQLVQSGAEVKKPGASVKVSCKASGYTFTTYWMNWVRQAPGQGLEWIGAINPSNDYTEYNQKFKDRAIMTADKSTSTVYMELSSLRSEDTAVYYCGRSYSPDYWGQGTTVTVSS VL: DIQMTQSPSSLSASVGDRVTITCKASQNVDNHVAWHQQKPGKAPKALIYSASYRYSGVPDRFTGSGSGTDFTLTISSLQPEDFADYFCQQYKSYPFTFGGGTKLEIK	–	–	6.39 nM	0.000711 s⁻¹	111000 M⁻¹ s⁻¹	6.98 nM	0.00121 s⁻¹	176000 M⁻¹ s⁻¹	352 nM	0.00201 s⁻¹	5720 M⁻¹ s⁻¹	–
